Values belong to the substance of their own block, whether it stands above or below them.
Tests used:
rFVIII [1] = molecular target: T1, rFVIII (Homo sapiens, UniProt P00451); assay: confirmatory binding assay in filtration plate format using 14C-rFVIII; details: for 0.5M CaCl2 % total / 2% acetic acid % total / 2% acetic acid dpm / 0.5M CaCl2 dpm: 5 mg beads; for 0.5M CaCl2 dpm: 5° C.; for beads % total / beads dpm: remaining on beads after washes
Experimental: Confirmatory binding assays were performed in a filtration plate format using individual peptide sequences synthesized directly onto the TOYOPEARL AF amino 650 M resin, at a final substitution density of 0.1 mmole/g resin. A slurry of each individual peptide sequence was prepared using deionized water. A 100 μL volume of beads (corresponding to 5 mg) was loaded into each well of the filtration plate (MULTISCREEN Assay System, Millipore, Bedford, Mass.), in triplicate for each peptide sequence. Beads were washed with 20% ethanol and incubated overnight with equilibration buffer (20 mM imidazole, 10 mM
CaCl2, 0.105 M NaCl, pH 6.9). A 100 μL aliquot of ^14 C-rFVIII diluted in neat PPF to a final concentration of 20-30 nM was loaded into each well and incubated for 1 hour at 5° C. Filtrate (unbound ^14 C-rFVIII) was collected into a microtiter plate and transferred to liquid scintillation vials for dpm counting. Beads were washed sequentially with: 100 μL of equilibration buffer for 15 minutes, 200 μL of 0.5 M CaCl2 (in equilibration buffer), 200 μL of 1.0 M CaCl2 (in equilibration buffer), and 200 uL of 2% by volume glacial acetic acid in water, for 1 hour each at 5° C. Scintillation counting on the unbound ^14 C-rFVIII (plus equilibration buffer wash), salt and acid washes, as well as on the beads was then performed and the overall mass balance calculated.
Beads presenting the appropriate peptide sequence on the surface were placed in the filtration plate wells and incubated sequentially with equilibration buffer, ^14 C-rFVIII in PPF, equilibration buffer, 0.5 M CaCl2 wash, 1.0 M CaCl2 wash and 2% acetic acid wash. After each incubation, filtrate was collected in microtiter plates, and dpm counted on each
In Table 3, the ^14 C-rFVIII was loaded at 20 nM (in PPF) and the radiolabeling yield was at 3.0×10^15 dpm/mole. In Table 4, the ^14 C-rFVIII was loaded at 30 nM (in PPF) and the radiolabeling yield was at 5.0×10^15 dpm/mole.

rFVIII [2] = molecular target: T1, rFVIII; assay: rFVIII activity recovery from peptide columns by chromogenic substrate assay (COATEST); assay type: biochemical; details: for 0.5M CaCl2 % total: activity recovery; for Flow through IU: rFVIII activity in fraction; for Activity results % total: Table 9, 0.5M CaCl2 fraction
Experimental: (§1) Immunoassay on rFVIII using a sandwich capture ELISA for the light chain and activity assay using a chromogenic substrate (COATEST Factor VIII kit from diaPharma, Franklin, Ohio) were performed on a BIOMEK® automated liquid handling system from Beckman Instruments (Brea, Calif.). The monoclonal antibody for rFVIII light chain (known as C7F7), the ELISA assay standard (lot A70K019), and the control for the activity assay (lot A70A001 @ 140 IU/mL) were from the Bayer Corporation (Berkeley, Calif.). The standard for the activity assay was at 11.2 IU/mL (Bayer, Clayton, N.C.), calibrated against the MEGA 1 standard, which is a working standard used by American manufacturers for measuring factor VIII activity (21).
(§2) Additional confirmatory binding assay and performance of the discovered binding peptides in terms of total rFVIII and activity recovery was performed in a column chromatographic format on a microbore HPLC. The resins were packed into 0.4×5 cm columns (Thomson, Springfield, Va.) and tested on the MICHROM HPLC system (Michrom BioResources, Auburn, Calif.). The elution program for the trials utilized the following method. The column was pre-equilibrated with equilibration buffer (as above). A 1 mL aliquot of 1:10 PPF followed by 1 mL of rFVIII (10,000 ng) in 1:10 PPF were injected and allowed sufficient time to flow through the column using equilibration buffer. The column was then washed with step elutions of 0.5 M and 1.0 M CaCl2 in equilibration buffer. The column was exposed to equilibration buffer. Remaining protein was eluted with 2% by volume glacial acetic acid in water. Columns were kept at 5° C. during the chromatographic runs. For each 1 mL injection (equilibration buffer, 1:10 PPF and 10,000 ng rFVIII in 1:10 PPF), the chromatographic cycle was run for 45 minutes (injection, flow through, 0.5 M CaCl2, 1.0 M CaCl2, equilibration buffer, 2% acetic acid, equilibration buffer).
(§3) A Gilson FC204 fraction collector at the HPLC outlet collected individual eluates for further analysis. Each collection tube had 100 μL hSA added to it to stabilize the rFVIII. Fractions collected from the 2% acetic acid eluates were neutralized with 2 M Tris, pH 10.5 to bring the pH to neutrality. The fractions were analyzed for total protein by the integration of the absorbance at 280 nm, for rFVIII by immunoassay (sandwich capture ELISA), and for rFVIII activity by a chromogenic substrate assay.
Tables 7 and 8 list the sequences for which activity recovery was determined by a chromogenic substrate assay (COASTEST kit, diaPharma, Franklin, Ohio). Chromatographc conditions are the same as described above for the results from Tables 5 and 6. It can be

rFVIII [3] = molecular target: T1, rFVIII; assay: column format binding assay, rFVIII mass per fraction by sandwich capture ELISA for the light chain; details: for Flow through ng: 10,000 ng rFVIII in 1:10 PPF injected, 5° C.; for ELISA results % total: Table 9, 0.5M CaCl2 fraction
Experimental: as §1, §2, §3
Tables 5 and 6 present the results from the additional confirmatory binding assays using the column format. The chromatography method was run by injecting the samples at a flow rate of 865 μL/min (413 cm/hr). In order to provide a 10 minute residence time of sample in the column the flow was decreased to 17 μL/min (10 cm/hr) upon injection.
Following the incubation, the flow was set at 865 μL/min (413 cm/hr) for the step clutions of 0.5 M CaCl2, 1.0 M CaCl2, and 2% acetic acid. Results are expressed in terms of the total mass of rFVIII in each fraction, as determined by the sandwich capture ELISA assay for the rFVIII light chain. […] A control using a non-binding peptide sequence (IGF) is also shown for comparison--in this case, 95% of the rFVIII loaded to the column was collected in the flow through fraction. Additional controls with no

[4] = Table 3, 14C-rFVIII 20 nM in PPF
[5] = Table 4, 14C-rFVIII 30 nM in PPF
[6] = Table 4, 14C-rFVIII 30 nM in PPF, 5.0 × 10^15 dpm/mole

T1 sequence (P00451 20-2351): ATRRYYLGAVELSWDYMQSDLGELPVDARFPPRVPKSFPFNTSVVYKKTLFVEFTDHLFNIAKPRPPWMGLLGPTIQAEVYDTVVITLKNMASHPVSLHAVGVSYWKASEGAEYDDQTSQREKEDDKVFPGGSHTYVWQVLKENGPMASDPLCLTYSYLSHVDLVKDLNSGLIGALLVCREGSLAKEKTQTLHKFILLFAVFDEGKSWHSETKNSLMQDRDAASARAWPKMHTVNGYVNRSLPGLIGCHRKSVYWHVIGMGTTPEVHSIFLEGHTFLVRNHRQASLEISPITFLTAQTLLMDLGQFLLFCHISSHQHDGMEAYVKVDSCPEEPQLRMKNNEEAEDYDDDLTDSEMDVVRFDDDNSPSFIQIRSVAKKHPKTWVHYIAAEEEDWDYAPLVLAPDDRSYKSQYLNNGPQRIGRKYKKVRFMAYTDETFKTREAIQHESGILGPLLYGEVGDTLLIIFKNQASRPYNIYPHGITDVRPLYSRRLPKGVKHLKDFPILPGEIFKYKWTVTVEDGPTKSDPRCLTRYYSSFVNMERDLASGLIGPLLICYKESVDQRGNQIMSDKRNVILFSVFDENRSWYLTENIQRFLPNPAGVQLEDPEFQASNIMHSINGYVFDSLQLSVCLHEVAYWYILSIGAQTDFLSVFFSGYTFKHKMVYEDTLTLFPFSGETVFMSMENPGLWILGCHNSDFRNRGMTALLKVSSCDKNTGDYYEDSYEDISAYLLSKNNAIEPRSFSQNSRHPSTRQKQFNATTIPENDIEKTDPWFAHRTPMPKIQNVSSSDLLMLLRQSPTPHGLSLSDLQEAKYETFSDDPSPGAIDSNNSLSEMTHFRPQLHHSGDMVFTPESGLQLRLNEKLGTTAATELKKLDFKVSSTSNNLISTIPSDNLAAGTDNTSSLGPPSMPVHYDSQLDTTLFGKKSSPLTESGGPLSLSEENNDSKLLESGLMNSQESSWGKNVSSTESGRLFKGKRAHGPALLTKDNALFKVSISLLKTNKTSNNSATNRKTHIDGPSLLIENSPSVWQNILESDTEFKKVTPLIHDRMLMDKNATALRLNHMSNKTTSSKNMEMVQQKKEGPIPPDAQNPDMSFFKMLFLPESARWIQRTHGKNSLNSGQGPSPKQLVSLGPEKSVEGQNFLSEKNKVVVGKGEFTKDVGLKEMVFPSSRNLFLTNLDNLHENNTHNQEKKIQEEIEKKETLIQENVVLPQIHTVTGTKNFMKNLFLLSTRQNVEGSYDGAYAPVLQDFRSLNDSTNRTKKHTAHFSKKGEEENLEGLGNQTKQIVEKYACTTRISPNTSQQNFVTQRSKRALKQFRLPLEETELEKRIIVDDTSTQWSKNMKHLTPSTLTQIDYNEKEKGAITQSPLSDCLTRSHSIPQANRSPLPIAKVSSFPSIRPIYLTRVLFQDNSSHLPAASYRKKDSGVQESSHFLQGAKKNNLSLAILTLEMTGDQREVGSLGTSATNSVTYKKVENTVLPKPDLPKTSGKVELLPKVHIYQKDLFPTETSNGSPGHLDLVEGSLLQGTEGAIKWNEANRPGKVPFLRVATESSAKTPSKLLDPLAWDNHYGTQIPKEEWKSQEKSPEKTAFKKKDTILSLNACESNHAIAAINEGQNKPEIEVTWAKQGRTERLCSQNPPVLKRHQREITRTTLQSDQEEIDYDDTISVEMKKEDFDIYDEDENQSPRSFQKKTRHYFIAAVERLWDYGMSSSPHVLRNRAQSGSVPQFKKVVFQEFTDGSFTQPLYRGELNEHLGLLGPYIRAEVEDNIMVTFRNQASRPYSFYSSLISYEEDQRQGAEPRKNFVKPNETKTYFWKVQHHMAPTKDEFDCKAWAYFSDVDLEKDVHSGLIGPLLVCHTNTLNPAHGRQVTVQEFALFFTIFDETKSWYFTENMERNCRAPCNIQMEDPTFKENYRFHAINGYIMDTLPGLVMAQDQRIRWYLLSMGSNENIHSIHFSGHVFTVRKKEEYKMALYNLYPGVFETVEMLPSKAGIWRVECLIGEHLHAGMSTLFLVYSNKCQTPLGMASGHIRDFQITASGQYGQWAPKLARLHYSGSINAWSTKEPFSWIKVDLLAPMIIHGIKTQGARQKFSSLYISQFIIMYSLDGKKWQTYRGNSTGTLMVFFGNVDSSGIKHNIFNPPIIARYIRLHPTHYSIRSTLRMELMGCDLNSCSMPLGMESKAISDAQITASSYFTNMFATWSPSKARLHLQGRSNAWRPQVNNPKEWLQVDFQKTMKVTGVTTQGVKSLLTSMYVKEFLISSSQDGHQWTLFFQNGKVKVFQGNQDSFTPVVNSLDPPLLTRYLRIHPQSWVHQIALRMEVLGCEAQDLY
T1 sequence (P00451 1668-2351 limits assumed): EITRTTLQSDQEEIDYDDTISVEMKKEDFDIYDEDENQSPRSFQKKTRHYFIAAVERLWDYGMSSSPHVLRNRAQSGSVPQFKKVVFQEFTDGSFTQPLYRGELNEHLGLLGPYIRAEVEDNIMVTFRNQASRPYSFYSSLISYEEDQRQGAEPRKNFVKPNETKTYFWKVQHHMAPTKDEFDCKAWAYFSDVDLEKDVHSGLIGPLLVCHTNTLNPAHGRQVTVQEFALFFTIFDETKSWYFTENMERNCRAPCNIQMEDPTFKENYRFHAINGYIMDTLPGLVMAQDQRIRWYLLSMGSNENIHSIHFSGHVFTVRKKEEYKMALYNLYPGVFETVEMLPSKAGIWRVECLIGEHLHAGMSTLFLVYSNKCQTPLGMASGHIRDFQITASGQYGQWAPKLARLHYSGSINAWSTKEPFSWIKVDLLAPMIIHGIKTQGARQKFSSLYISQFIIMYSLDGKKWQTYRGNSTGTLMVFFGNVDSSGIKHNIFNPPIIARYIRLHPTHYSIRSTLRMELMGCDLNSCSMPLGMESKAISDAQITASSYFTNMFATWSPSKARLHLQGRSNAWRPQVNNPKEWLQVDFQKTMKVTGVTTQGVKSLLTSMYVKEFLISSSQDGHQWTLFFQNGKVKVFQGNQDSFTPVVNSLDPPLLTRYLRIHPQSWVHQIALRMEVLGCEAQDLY

- Total dpm (rFVIII [1]; Table 3, 14C-rFVIII 20 nM): 3881 dpm
- 0.5M CaCl2 % total (rFVIII [1]; [4]): 83%
- 2% acetic acid % total (rFVIII [1]; [4]): 12%
- 2% acetic acid dpm (rFVIII [1]; [4]): 458 dpm
- 0.5M CaCl2 dpm (rFVIII [1]; Table 3, 14C-rFVIII 20 nM in PPF, 3.0 × 10^15 DPM/mole): 3236 dpm
- beads % total (rFVIII [1]; Table 3, 14C-rFVIII 20 nM): 5%
- beads dpm (rFVIII [1]; Table 3, 14C-rFVIII 20 nM): 187 dpm
- 0.5M CaCl2 IU (rFVIII [2]; Table 7): 59.4 IU
- 2% acetic acid % total (rFVIII [2]; Table 7): 1%
- 2% acetic acid IU (rFVIII [2]; Table 7): 0.5 IU
- Flow through % total (rFVIII [2]; Table 7): 0%
- Total IU (rFVIII [2]; Table 7): 68.7 IU
- 0.5M CaCl2 % total (rFVIII [2]; Table 7): 86%
- Flow through IU (rFVIII [2]; Table 7): 0.0 IU
- Activity results % total (rFVIII [2]): 86%
- 0.5M CaCl2 ng (rFVIII [3]; Table 5): 5658 ng
- 0.5M CaCl2 % total (rFVIII [3]; Table 5): 90%
- 2% acetic acid % total (rFVIII [3]; Table 5): 3%
- 2% acetic acid ng (rFVIII [3]; Table 5): 160 ng
- Flow through % total (rFVIII [3]; Table 5): 2%
- Total ng (rFVIII [3]; Table 5): 6320 ng
- Flow through ng (rFVIII [3]; Table 5): 105 ng
- ELISA results % total (rFVIII [3]): 90%
Substance: 6 (HYWFYK) [compound 6]

- Total dpm (rFVIII [1]; Table 4, 14C-rFVIII 30 nM): 3557 dpm
- 0.5M CaCl2 % total (rFVIII [1]; [5]): 90%
- 2% acetic acid % total (rFVIII [1]; [5]): 8%
- 2% acetic acid dpm (rFVIII [1]; [5]): 271 dpm
- 0.5M CaCl2 dpm (rFVIII [1]; [6]): 3191 dpm
- beads % total (rFVIII [1]; Table 4, 14C-rFVIII 30 nM): 3%
- beads dpm (rFVIII [1]; Table 4, 14C-rFVIII 30 nM): 95 dpm
- 0.5M CaCl2 IU (rFVIII [2]; Table 8): 45.1 IU
- 2% acetic acid % total (rFVIII [2]; Table 8): 0%
- 2% acetic acid IU (rFVIII [2]; Table 8): 0.08 IU
- Flow through % total (rFVIII [2]; Table 8): 0%
- Total IU (rFVIII [2]; Table 8): 46.6 IU
- 0.5M CaCl2 % total (rFVIII [2]; Table 8): 97%
- Flow through IU (rFVIII [2]; Table 8): 0.0 IU
- Activity results % total (rFVIII [2]): 97%
- 0.5M CaCl2 ng (rFVIII [3]; Table 6): 9223 ng
- 0.5M CaCl2 % total (rFVIII [3]; Table 6): 96%
- 2% acetic acid % total (rFVIII [3]; Table 6): 2%
- 2% acetic acid ng (rFVIII [3]; Table 6): 188 ng
- Flow through % total (rFVIII [3]; Table 6): 0%
- Total ng (rFVIII [3]; Table 6): 9579 ng
- Flow through ng (rFVIII [3]; Table 6): 0 ng
- ELISA results % total (rFVIII [3]): 96%
Substance: 12 (QRLIQF) [compound 12]

- Total dpm (rFVIII [1]; Table 4, 14C-rFVIII 30 nM): 3764 dpm
- 0.5M CaCl2 % total (rFVIII [1]; [5]): 93%
- 2% acetic acid % total (rFVIII [1]; [5]): 5%
- 2% acetic acid dpm (rFVIII [1]; [5]): 188 dpm
- 0.5M CaCl2 dpm (rFVIII [1]; [6]): 3491 dpm
- beads % total (rFVIII [1]; Table 4, 14C-rFVIII 30 nM): 2%
- beads dpm (rFVIII [1]; Table 4, 14C-rFVIII 30 nM): 85 dpm
- 0.5M CaCl2 IU (rFVIII [2]; Table 8): 53.1 IU
- 2% acetic acid % total (rFVIII [2]; Table 8): 0%
- 2% acetic acid IU (rFVIII [2]; Table 8): 0.1 IU
- Flow through % total (rFVIII [2]; Table 8): 0%
- Total IU (rFVIII [2]; Table 8): 54.3 IU
- 0.5M CaCl2 % total (rFVIII [2]; Table 8): 98%
- Flow through IU (rFVIII [2]; Table 8): 0.0 IU
- Activity results % total (rFVIII [2]): 98%
- 0.5M CaCl2 ng (rFVIII [3]; Table 6): 11023 ng
- 0.5M CaCl2 % total (rFVIII [3]; Table 6): 98%
- 2% acetic acid % total (rFVIII [3]; Table 6): 1%
- 2% acetic acid ng (rFVIII [3]; Table 6): 135 ng
- Flow through % total (rFVIII [3]; Table 6): 0%
- Total ng (rFVIII [3]; Table 6): 11272 ng
- Flow through ng (rFVIII [3]; Table 6): 0 ng
- ELISA results % total (rFVIII [3]): 98%
Substance: 10 (AFVRSL) [compound 10]
